Assay results from doi:10.1101/2021.01.21.427698 (bioRxiv, 2021).

B1: human SEPT2 with a TEV-cleavable N-terminal His6-tag (natural protein)
chain: MSKQQPTQFINPETPGYVGFANLPNQVHRKSVKKGFEFTLMVVGESGLGKSTLINSLFLTDLYPERVIPGAAEKIERTVQIEASTVEIEERGVKLRLTVVDTPGYGDAINCRDCFKTIISYIDEQFERYLHDESGLNRRHIIDNRVHCCFYFISPFGHGLKPLDVAFMKAIHNKVNIVPVIAKADTLTLKERERLKKRILDEIEEHNIKIYHLPDAESDEDEDFKEQTRLLKASIPFSVVGSNQLIEAKGKKVRGRLYPWGVVEVENPEHNDFLKLRTMLITHMQDLQEVTQDLHYENFRSERLKRGGRKVENEDMNKDQILLEKEAELRRMQEMIARMQAQMQMQMQGGDGDGGALGHHV
B2: human SEPT9_i3 with a TEV-cleavable C-terminal Strep-tag-II (natural protein)
chain: MERDRISALKRSFEVEEVETPNSTPPRRVQTPLLRATVASSTQKFQDLGVKNSEPSARHVDSLSQRSPKASLRRVELSGPKAAEPVSRRTELSIDISSKQVENAGAIGPSRFGLKRAEVLGHKTPEPAPRRTEITIVKPQESAHRRMEPPASKVPEVPTAPATDAAPKRVEIQMPKPAEAPTAPSPAQTLENSEPAPVSQLQSRLEPKPQPPVAEATPRSQEATEAAPSCVGDMADTPRDAGLKQAPASRNEKAPVDFGYVGIDSILEQMRRKAMKQGFEFNIMVVGQSGLGKSTLINTLFKSKISRKSVQPTSEERIPKTIEIKSITHDIEEKGVRMKLTVIDTPGFGDHINNENCWQPIMKFINDQYEKYLQEEVNINRKKRIPDTRVHCCLYFIPATGHSLRPLDIEFMKRLSKVVNIVPVIAKADTLTLEERVHFKQRITADLLSNGIDVYPQKEFDEDSEDRLVNEKFREMIPFAVVGSDHEYQVNGKRILGRKTKWGTIEVENTTHCEFAYLRDLLIRTHMQNIKDITSSIHFEAYRVKRLNEGSSAMANGVEEKEPEAPEM
B3: human SEPT9_i3 with a noncleavable C-terminal Strep-tag-II (as in the mammalian octamers-9_i3) (natural protein)
chain: B2 chain
B4: human SEPT6 (natural protein)
chain: MAATDIARQVGEGCRTVPLAGHVGFDSLPDQLVNKSVSQGFCFNILCVGETGLGKSTLMDTLFNTKFEGEPATHTQPGVQLQSNTYDLQESNVRLKLTIVSTVGFGDQINKEDSYKPIVEFIDAQFEAYLQEELKIRRVLHTYHDSRIHVCLYFIAPTGHSLKSLDLVTMKKLDSKVNIIPIIAKADAISKSELTKFKIKITSELVSNGVQIYQFPTDDESVAEINGTMNAHLPFAVIGSTEELKIGNKMMRARQYPWGTVQVENEAHCDFVKLREMLIRVNMEDLREQTHTRHYELYRRCKLEEMGFKDTDPDSKPFSLQETYEAKRNEFLGELQKKEEEMRQMFVQRVKEKEAELKEAEKELHEKFDRLKKLHQDEKKKLEDKKKSLDDEVNAFKQRKTAAELLQSQGSQAGGSQTLKRDKEKKN
B5: human SEPT9_i1 with a TEV-cleavable C-terminal Strep-tag-II (natural protein)
chain: MKKSYSGGTRTSSGRLRRLGDSSGPALKRSFEVEEVETPNSTPPRRVQTPLLRATVASSTQKFQDLGVKNSEPSARHVDSLSQRSPKASLRRVELSGPKAAEPVSRRTELSIDISSKQVENAGAIGPSRFGLKRAEVLGHKTPEPAPRRTEITIVKPQESAHRRMEPPASKVPEVPTAPATDAAPKRVEIQMPKPAEAPTAPSPAQTLENSEPAPVSQLQSRLEPKPQPPVAEATPRSQEATEAAPSCVGDMADTPRDAGLKQAPASRNEKAPVDFGYVGIDSILEQMRRKAMKQGFEFNIMVVGQSGLGKSTLINTLFKSKISRKSVQPTSEERIPKTIEIKSITHDIEEKGVRMKLTVIDTPGFGDHINNENCWQPIMKFINDQYEKYLQEEVNINRKKRIPDTRVHCCLYFIPATGHSLRPLDIEFMKRLSKVVNIVPVIAKADTLTLEERVHFKQRITADLLSNGIDVYPQKEFDEDSEDRLVNEKFREMIPFAVVGSDHEYQVNGKRILGRKTKWGTIEVENTTHCEFAYLRDLLIRTHMQNIKDITSSIHFEAYRVKRLNEGSSAMANGVEEKEPEAPEM

Key:
human SEPT6 = biological target: B4; test: two-tag affinity co-purification of co-expressed proteins
native gel or EMSA = biological target: the molecule itself; test: native gel or EMSA
[1] = biological target: the molecule itself; test: negative-stain single-particle electron microscopy
[2] = biological target: B1

Binder: B1
binding result (human SEPT6): binds

Binder: B2
binding result (native gel or EMSA): binds

Binder: B3
binding result [1]: binds

Binder: B4
stoichiometry N [2]: 1

Binder: B5
binding result (native gel or EMSA): binds
